{"source": "the DeepSol protein solubility set", "data": [{"experiment": "soluble on expression in E. coli; label from the status in PepcDB or PDB records", "values": [{"sequence": "MATHGQTCARPMCIPPSYADLGKAARDIFNKGFGFGLVKLDVKTKSCSGVEFSTSGSSNTDTGKVTGTLETKYKWCEYGLTFTEKWNTDNTLGTEIAIEDQICQGLKLTFDTTFSPNTGKKSGKIKSSYKRECINLGCDVDFDFAGPAIHGSAVFGYEGWLAGYQMTFDSAKSKLTRNNFAVGYRTGDFQLHTNVNDGTEFGGSIYQKVCEDLDTSVNLAWTSGTNCTRFGIAAKYQLDPTASISAKVNNSSLIGVGYTQTLRPGVKLTLSALVDGKSINAGGHKVGLALELEA", "soluble on expression in E. coli": "soluble"}, {"sequence": "MATKITINVTNNSTSTQNFFFFQQPAVYSGGPKVYTNSLYSQTLLPYATSGSVLSFTMILQYYAGVQQQVDPPQIGQPSGQLGAIQPIELTPASGGTPTKNTTNMTVDPSLGLSVPVSTDGPQAGSFRIVTPVYDPVLMNYSAGSAVQSLTGAITLSNFVTAQPNTNLDCQPIIKFYVQTGTYTAGTVMNFTSSSVGAALCDATPGFTTFNVSYNPNGTWTVKNMALSQLANGSRGLLEKSSFTTELNAAAQIAEVLNEAGTAVVSTGLAANFLRPVTVTNLTAPGAIIRNRDYQVGPVDGRHLGLTCTDVAGNTAVFD", "soluble on expression in E. coli": "not soluble"}, {"sequence": "MATLDVNPELYQAQLADKIARLKAMFVDYSMPELEVFESPVANYRMRAEFRIWHEGDDMYYIMFNQETREKYRVDQFPAASRLINDLMPLLMDAMKGSPILRHKLFQVDFLSTLSGEILVSLLYHRQLSEEWITAAQALKQRLNDEGFNLNLIGRARKMKVVLDRDYVVENLQVNGQPYVYKQVENSFTQPNAKVAEKMLEWAVDCTQESKGDLLELYCGNGNFSLALAQNFERVLATELAKPSVEAAQFNIAANQIGNVQIIRMSAEEFTQAMEGKREFNRLKDAGVDLQSYRCNTIFVDPPRSGMDIDTCKMVQGYERILYISCNPETLQENLQVLGETHQVVRFALFDQFPYTHHMEAGVMLERKK", "soluble on expression in E. coli": "not soluble"}, {"sequence": "MATLEDGTSEDRVANDEYKIWKKNTPFLYDLVMTHALEWPSLSVQWLPDVAKDNSDHTIHRLILGTHTSDEQNHLLISKICMPTDDAQFDASRYDTERSEYGGFGAVNGKVEPDIRINHEGEVNRARYMPQKSNIIATKSPHADVYIFDYLKHSAVPRDNTFNPLIRLKGHTKEGYGLSWNPNKEGLILSASDDQTVCHWDINANQNVAGELQAKDVFKGHESVVEDVAWHVLHDGVFGSVGDDKKLLIWDVRTSTPGHCIDAHSAEVNCLAFNPYSEFILATGSADKTVALWDLRNLRMKLHSFESHRDEIFQVQWSPHNETILASSGTDKRLHVWDLSKIGEDQSAEDAEDGPPELLFIHGGHTAKISDFSWNPNEPWVVCSVSEDNILQVWQMADNIYNEVDEETPADVVERQQ", "soluble on expression in E. coli": "not soluble"}, {"sequence": "MATNRSRRLRKKLCVDEFQELGFELNLDFKQELDDKAIDAFLDAFLKEAMEANGLGYVGGDDFGLVCLSKRGSVSEEQRAAVEAWLKGRSELTEVTVSPLIDVWY", "soluble on expression in E. coli": "not soluble"}, {"sequence": "MATPAYMSITGTKQGLITAGAFTEDSVGNTYQEGHEDQVMVQGFNHEVIIPRDPQSGQPTGQRVHKPVVITKVFDKASPLLLAALTSGERLTKVEIQWYRTSAAGTQEHYYTTVLEDAIIVDIKDYMHNCQDPGNAHFTHLEDVHFTYRKITWTHEVSGTSGSDDWRSPVAG", "soluble on expression in E. coli": "soluble"}, {"sequence": "MATQLLMPKATAVWLVDNTALTFDQIAEFCKLHVLEVKAIADGEAAYGIKGLDPISSGQLTRSEIARVEADKNARLKISQSKVHIPEKKRKGARYIPLSRRQDRPNGILWLVTNHPELKDAQIARLIGTTKGTIEQIRNRTHWNSANLVALDPVGLGLCLQIDLDIELKRAAKNRPLSNEEDKSLLPASVTENVAIHEKEHEQDFNKNFDADKVFAKLNALQKNRENDASTELEHHHHHH", "soluble on expression in E. coli": "soluble"}, {"sequence": "MATRFKGLSAFPITPADEAGRVDIEAFSALIARLDAAEVDSVGILGSTGIYMYLTREERRRAIEAAATILRGRRTLMAGIGALRTDEAVALAKDAEAAGADALLLAPVSYTPLTQEEAYHHFAAVAGATALPLAIYNNPTTTRFTFSDELLVRLAYIPNIRAIKMPLPADADYAGELARLRPKLSDDFAIGYSGDWGCTDATLAGGDTWYSVVAGLLPVPALQLMRAAQAGNAEEAKRLDATFQPLWALFKEFGSIRVIYAAANILSLTVSEPPRPILPLTSAERQRVEEALEALSALETAP", "soluble on expression in E. coli": "not soluble"}, {"sequence": "MATRFMTDPHAMRDMAGRFEVHAQTVEDEARRMWASAQNISGAGWSGMAEATSLDTMAQMNQAFRNIVNMLHGVRDGLVRDANNYEQQEQASQQILSS", "soluble on expression in E. coli": "not soluble"}, {"sequence": "MATSLQAAATFLQPAKIAASPSRNVHLRSNQTVGKSFGLDSSQARLTCSLHSDLKDFAGKCSDAAKIAGFALATSALVVSGAGAEGAPKRLTYDEIQSKTYMEVKGTGTANQCPTIDGGSETFSFKAGKYTGKKFCFEPTSFTVKADSVSKNAPPDFQNTKLMTRLTYTLDEIEGPFEVGSDGSVKFKEEDGIDYAAVTVQLPGGERVPFLFTVKQLEASGKPESFSGKFLVPSYRGSSFLDPKGRGGSTGYDNAVALPAGGRGDEEELSKENVKNTAASVGEITLKITKSKPETGEVIGVFESLQPSDTDLGAKVPKDVKIQGVWYGQIE", "soluble on expression in E. coli": "soluble"}, {"sequence": "MATWTVHLEGGPRRVNHASIAVGSRIYSFGGYCSGEVTDAKDPLDVHVLNTENYRWIKMNPGYVYNNRIITKATIESPYSDSDKMFGAVPYQRYGHTVVEYQGKAYVWGGRNDDYGACNLLHEYDPEYNVWKKVEIEGFVPPSRDGHTAVVWNNQMFVFGGYEEDAQRFSQETYVFDFATSTWREMHTKNDPPRWRDFHTASVIDGMMYIFGGRSDESGQVGDEHLFHTIHDQYDDTLMALNLATGAWTRTKVPENTMKPGGRRSHSTWVYDGKMYMFGGYLGTINVHYNELYCFDPKTSMWSVISVRGTYPSARRRHCSVVSNGKVYLFGGTMPLPCHPLSTTNYNGMISPSGLADLSDLHVLDFAPSLKTLAMQSVLNELKVPSKGMFETLQNELAADIRFEMYCQVMPNVVSNGGSPRNDQAG", "soluble on expression in E. coli": "not soluble"}, {"sequence": "MAVAANKRSVMTLFSSASDMYSHQVRIVLAEKGVSFEVELVDENNLPAELIELNPYKTVPTLVDRELALYDSKIIMEYLDERFPHPPLMPVYPVARGNSRLMIYRIERNWYSLAEKVVNGSPEVAENARNKLRNDLLTLGPVFAEFEYFMSEEFSLIDCYLAPLLWRLPVLGIDLIGPGSKELKVYMNRVFERDSFLASLTEAEREMRLAR", "soluble on expression in E. coli": "not soluble"}, {"sequence": "MAVAYSIGIDSGSTATKGILLADGVITRRFLVPTPFRPATAITEAWETLREGLETTPFLTLTGYGRQLVDFADKQVTEISCHGLGARFLAPATRAVIDIGGQDSKVIQLDDDGNLCDFLMNDKCAAGTGRFLEVISRTLGTSVEQLDSITENVTPHAITSMCTVFAESEAISLRSAGVAPEAILAGVINAMARRSANFIARLSCEAPILFTGGVSHCQKFARMLESHLRMPVNTHPDAQFAGAIGAAVIGQRVRTRR", "soluble on expression in E. coli": "soluble"}, {"sequence": "MAVESRVTQEEIKKEPEKPIDREKTCPLLLRVFTTNNGRHHRMDEFSRGNVPSSELQIYTWMDATLKELTSLVKEVYPEARKKGTHFNFAIVFTDVKRPGYRVKEIGSTMSGRKGTDDSMTLQSQKFQIGDYLDIAITPPNRAPPTSGRMRPY", "soluble on expression in E. coli": "soluble"}, {"sequence": "MAVIVLAGTIGAGKSSLTALIANRLGSEAFYESVDDNEVLPLFYAEPEKYAFLLQIYFLNKRFDSIKQALTHENNVLDRSIYEDSLLFHLNADLGRANETEVKVYDDLLQNMLQELPYAAHKKRPDLLVHIRISFPKMLERIKKRGRPYEQIETDPTLYDYYQMLNERYDQWYEDYDESPKIQIDGDKYDFVEDPEACQYVLALIEKKIEELER", "soluble on expression in E. coli": "not soluble"}, {"sequence": "MAVKISGVLKDGAGKPVVNCAIELRARRTSPTVVAHVVATCVTDNNGAYVIEAEPGYYEVALHCNGWQPTRVGDIDVAPTDAPGTLNAFLNAPKDGDLRPEVMKRFEEMVAQAQQSAGAAAGNAQQTAQDVAAAATARDDAQRFAEKARQDATVTAEDRKATAEDVTSTGANAAAAGQSAQDAAGYARAAEQAKNDIDAALTGTLKMANHLSEIAAAGEKAQQKSRDNLGLKSAATMEAQSDIYDRTKGRLAIPGAFGFGCAFLPEDVIRFDTKSDFLAWVRNALPGEYSVAGPYGIIIPDTRFEGVLSIRWTDARPETTEPRYRAKSLTFYGINGPIYHTRYRYWPISRLTG", "soluble on expression in E. coli": "not soluble"}, {"sequence": "MAVLKGLRPRVPKGLKSPPEPWGWPLLGHVLTLGKNPHLALSRMSQRYGDVLQIRIGSTPVLVLSRLDTIRQALVRQGDDFKGRPDLYTSTLITDGQSLTFSTDSGPVWAARRRLAQNALNTFSIASDPASSSSCYLEEHVSKEAKALISRLQELMAGPGHFDPYNQVVVSVANVIGAMCFGQHFPESSDEMLSLVKNTHEFVETASSGNPLDFFPILRYLPNPALQRFKAFNQRFLWFLQKTVQEHYQDFDKNSVRDITGALFKHSKKGPRASGNLIPQEKIVNLVNDIFGAGFDTVTTAISWSLMYLVTKPEIQRKIQKELDTVIGRERRPRLSDRPQLPYLEAFILETFRHSSFLPFTIPHSTTRDTTLNGFYIPKKCCVFVNQWQVNHDPELWEDPSEFRPERFLTADGTAINKPLSEKMMLFGMGKRRCIGEVLAKWEIFLFLAILLQQLEFSVPPGVKVDLTPIYGLTMKHARCEHVQARRFSINHHHH", "soluble on expression in E. coli": "soluble"}, {"sequence": "MAVPVRHLVAVTACVSGVAHTYMAAERLEKLCQQEKWSIKIETQGALGTENRLTEEDIRRADVVLLITDIELAGVERFTRSRYVQSGISAFLREPQRVMSAVRKLLSAPQHTHLILE", "soluble on expression in E. coli": "not soluble"}, {"sequence": "MAVRKLTTGKWLCECYPAGRSGRRVRKQFATKGEALAFERHTMEETEAKPWLGESVDRRTLKDVVELWFKLHGKSLTAGQHVYDKLLLMVDALGNPLATDLTSKMFAHYRDKRLTGEIYFSEKWKKGASPVTINLEQSYLSSVFSELSRLGEWSYPNPLENMRKFTIA", "soluble on expression in E. coli": "not soluble"}, {"sequence": "MAVRKLWKTVVQLFSKSKSEECNTEAGTMEVSFLKYGVRGLNADCSYVKSQCIKLSECECLYTFASDVCKEDFHNSEEMKVFVVQHSQEMVDGTDLFVHAEESV", "soluble on expression in E. coli": "not soluble"}, {"sequence": "MAVSLVKGGNVSLTKEAPTMNIAVVGLGWDARVTDGSEFDLDASVFMVGENGKVLSDQHFIFFNNKVSPCGSVVHQGDNRTGAGDGDDEQIKIDLKKVPADVKKIIFSVTIYDAEARKQNFGMVSNSFMRVVNEDNSAEIARFDLSEDASTETAMIFGELYRNNDEWKFKAVGQGFAGGLSALASQHGVSV", "soluble on expression in E. coli": "not soluble"}, {"sequence": "MAWPKVQPEVNIGVVGHVDHGKTTLVQAITGIWTSKHSEELKRGMTIKLGYAETNIGVCESCKKPEAYVTEPSCKSCGSDDEPKFLRRISFIDAPGHEVLMATMLSGAALMDGAILVVAANEPFPQPQTREHFVALGIIGVKNLIIVQNKVDVVSKEEALSQYRQIKQFTKGTWAENVPIIPVSALHKINIDSLIEGIEEYIKTPYRDLSQKPVMLVIRSFDVNKPGTQFNELKGGVIGGSIIQGLFKVDQEIKVLPGLRVEKQGKVSYEPIFTKISSIRFGDEEFKEAKPGGLVAIGTYLDPSLTKADNLLGSIITLADAEVPVLWNIRIKYNLLERVVGAKEMLKVDPIRAKETLMLSVGSSTTLGIVTSVKKDEIEVELRRPVAVWSNNIRTVISRQIAGRWRMIGWGLVEI", "soluble on expression in E. coli": "soluble"}, {"sequence": "MAYLERAYFGLQCFWGESAWAKLKGVVVTRVGYAGGKQPNPTYKNIKDHTEITEITFDPKVIEYSKLTNFFWKHHNPAERRKKQYQSAILYVNDDQKKVAEETLKVAKDKHGDIETYIEPLDKFYQAEDYHQKYWFRQKKILFDELSLLDTQVAEGELATKLNAYCAGFQDFHDLERLAKEYGLKDSFVNKVKDYALSGGDPRNCHA", "soluble on expression in E. coli": "not soluble"}]}]}
